The source of these data is US20220025037A1 (DRAGONFLY THERAPEUTICS, published 2022).

Test [1] deals with recombinant human DLL3 (ELISA coat) (human) (UniProt Q9NYJ7). Kind of test: ELISA on coated recombinant human DLL3, anti-mouse IgG-HRP. Background: An ELISA detects its analyte on a solid surface through an enzyme-linked reagent.
A further test concerns the target T1, recombinant human DLL4 (human, UniProt Q9NR61 27-524, limits assumed).
T1 construct: Coated on plates at 0.5 µg/ml
Description: ELISA, plate coated with recombinant human DLL4 at 0.5 ug/ml, anti-mouse IgG-HRP/TMB, signal as % of positive control max. How it is done:
To investigate the binding of anti-DLL3 antibodies to human DLL3, wells of high binding flat-bottom plates were coated with recombinant human DLL3 diluted to 0.5 μg/ml. To assess cross-reactivity of the antibodies to DLL1/DLL4, which are closely related family members to DLL3, plates were coated with recombinant human DLL1 diluted to 1 μg/ml, or human DLL4 diluted to 0.5 μg/ml. […] Binding was detected using anti-mouse IgG-HRP and 3,3′,5,5′-Tetramethylbenzidine (TMB) substrate. Signals were normalized to the corresponding positive control antibody.

Test [2] addresses T2, human DLL3-His (human, UniProt Q9NYJ7 27-492, limits assumed).
T2 construct: also called hDLL3
T2 sequence (looked up): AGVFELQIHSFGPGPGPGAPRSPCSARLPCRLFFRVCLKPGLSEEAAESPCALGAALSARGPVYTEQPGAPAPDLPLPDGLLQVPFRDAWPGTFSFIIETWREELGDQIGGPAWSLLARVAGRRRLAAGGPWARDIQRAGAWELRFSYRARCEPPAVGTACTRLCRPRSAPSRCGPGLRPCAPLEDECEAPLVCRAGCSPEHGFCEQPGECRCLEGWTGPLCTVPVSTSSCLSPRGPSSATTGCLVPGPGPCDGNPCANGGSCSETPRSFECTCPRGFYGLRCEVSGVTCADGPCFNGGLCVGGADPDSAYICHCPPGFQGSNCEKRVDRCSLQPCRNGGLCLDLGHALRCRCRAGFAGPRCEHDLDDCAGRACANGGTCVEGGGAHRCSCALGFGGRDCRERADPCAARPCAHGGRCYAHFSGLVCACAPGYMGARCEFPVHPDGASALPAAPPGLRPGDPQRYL
Description: SPR (Biacore 8K), 37 C, antibody captured on anti-mouse Fc, human DLL3-His injected, 1:1 fit. An excerpt:
(§1) The kinetics of binding of different humanized variants and parental murine 5E7 antibody to human DLL3-His was studied by Surface Plasmon Resonance using a Biacore 8K instrument. Briefly, anti-hFc and anti-mFc IgG proteins were covalently immobilized onto different channels of CM5 chip to allow simultaneous analysis of human and murine antibodies. m5E7 was captured on the anti-mouse Fc channel and humanized variants were captured on the anti-human Fc channel at a desired capture level of ˜56 RU in HBS-EP+ buffer supplemented with 0.1% BSA. Three buffer blanks and human DLL3-His (analyte) at concentrations 0.411-300 nM (in three fold dilutions) were injected over the surface with captured murine or humanized 5E7 for 300 second association time and let dissociate for 600 second at a flow rate of 30 μL/min. The surfaces were subjected to regeneration with three 20-second pulses of 10 mM glycine pH 1.70 at a flow rate of 100 μL/min between every concentration of analyte. The experiment was conducted at 37° C. Data were double referenced and a 1:1 fit model was applied to the sensorgrams in the Biacore Insight Evaluation software.
(§2) The kinetic parameters of human DLL3-His binding to murine and humanized variants of 5E7 antibody variants were calculated and shown in Table 12.

Test [3] has as its target T3, DLL3 on RPMI-8226 cells transduced to express the full-length extracellular portion of DLL3 (UniProt Q9NYJ7 27-492, limits assumed).
T3 construct: extracellular domain; also called DLL3+ RPMI-8226 cells; cell surface DLL3
T3 sequence (looked up): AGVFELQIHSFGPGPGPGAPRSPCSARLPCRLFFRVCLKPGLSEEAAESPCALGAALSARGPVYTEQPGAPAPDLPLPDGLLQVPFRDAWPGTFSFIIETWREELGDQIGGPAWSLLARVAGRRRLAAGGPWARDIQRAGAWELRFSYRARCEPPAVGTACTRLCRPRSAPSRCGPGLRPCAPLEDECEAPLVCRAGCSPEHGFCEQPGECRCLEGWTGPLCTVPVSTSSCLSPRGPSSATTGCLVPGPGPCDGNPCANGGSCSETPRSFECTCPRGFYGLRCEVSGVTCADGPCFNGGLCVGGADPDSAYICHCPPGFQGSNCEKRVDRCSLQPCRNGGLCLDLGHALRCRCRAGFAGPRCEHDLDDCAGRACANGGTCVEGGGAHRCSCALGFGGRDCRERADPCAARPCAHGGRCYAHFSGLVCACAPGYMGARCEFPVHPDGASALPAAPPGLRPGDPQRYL
Kind of test: flow cytometry on RPMI-8226 cells transduced to express DLL3, fluorophore-conjugated anti-human IgG secondary, MFI. How it is done: To assess the binding of the mAbs to DLL3 positive cells, human myeloma cell line RPMI-8226 was transduced to express the full-length extracellular portion of DLL3. Anti-DLL3 mAbs were diluted and incubated with DLL3⁺ RPMI-8226 cells. The cells were analyzed by flow cytometry and binding of a mAb was detected using a fluorophore conjugated anti-human IgG secondary antibody.

The target of test [4] is T2, human DLL3-His. Description: SPR (Biacore 8K), 37 C, antibody captured on anti-human Fc, human DLL3-His injected, 1:1 fit.
Description: as §1, §2

T1 sequence (Q9NR61 27-524 limits assumed): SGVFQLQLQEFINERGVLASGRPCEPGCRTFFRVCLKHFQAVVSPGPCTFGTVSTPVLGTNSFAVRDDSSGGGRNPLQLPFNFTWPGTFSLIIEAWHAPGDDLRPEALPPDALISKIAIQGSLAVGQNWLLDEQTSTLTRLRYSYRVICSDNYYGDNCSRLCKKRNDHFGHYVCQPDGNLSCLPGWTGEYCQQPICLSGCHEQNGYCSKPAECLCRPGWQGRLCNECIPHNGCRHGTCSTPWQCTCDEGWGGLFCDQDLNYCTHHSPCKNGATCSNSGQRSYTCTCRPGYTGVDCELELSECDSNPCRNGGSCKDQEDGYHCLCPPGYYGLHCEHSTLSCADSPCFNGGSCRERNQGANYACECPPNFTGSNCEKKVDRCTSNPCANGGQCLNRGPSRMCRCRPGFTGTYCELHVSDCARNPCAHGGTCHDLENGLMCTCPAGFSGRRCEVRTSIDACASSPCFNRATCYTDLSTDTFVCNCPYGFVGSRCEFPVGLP

Regarding “positive control antibody for DLL3 (R&D Systems-MAB4315)”, in test [1], the EC50 (usually the concentration giving half of the maximal effect) is 0.1 nM.

B1: murine anti-DLL3 antibody clone 5E7 (antibody, V domains shown)
VH: EVQLQQSGAELVRPGASVKLSCTASGFNIKDDYIHWVKQWPEQGLEWIGWIDSENGDTEYASKFQGKATMTADTSSNTAYLQLSGLTSEDTAVYYCTTSSYYSYDLFVYWGQGTLVTVSA
VL: DVLMTQTPLTLSVPIGQPASISCKSSQSLLHSNGKTYLNWLLQRPGQSPKLLIYLVSKLESGVPDRFSGSGSGTDFTLKISRVEAEDLGVYYCLQTTHLYTFGGGTKLEIK
notes: Mouse hybridoma antibody, captured by anti-mouse Fc; also called m5E7; murine 5E7
B1: the binding result with recombinant human DLL4 is “binds”. Also, in the test with human DLL3-His [2], the Kd (usually a measure of binding affinity in units of concentration) came out at 1.2 nM.

B2: humanized anti-DLL3 antibody h5E7 (antibody, V domains shown)
VH: QVQLVQSGAEVKKPGASVKVSCKASGFNIKDDYIHWVRQAPGQGLEWMGWIDSENGDTEYASKFQGRVTITADTSANTAYMELSSLRSEDTAVYYCATSSYYSYDLFVYWGQGTLVTVSS
VL: DVQMTQSPSSLSASVGDRVTITCKSSQSLLHSNGKTYLNWLQQKPGQAPKLLLYLVSKLESGVPSRFSGSGSGTDYTLTISSLQPEDFATYYCLQTTHLYTFGQGTKLEIK
notes: also called clone h5E7
Take B2: the EC50 (read off the curve) (as a rule, the concentration giving half of the maximal effect) in test [3] is approximately 6 nM. This molecule showed a Kd with human DLL3-His [4] of 8.7 nM.

B3: humanized anti-DLL3 antibody h5E7-YD-C6 (antibody, V domains shown)
VH: QVQLVQSGAEVKKPGASVKVSCKASGFNIKDDYIHWVRQAPGQGLEWMGWIDSENGDTEYASKFQGRVTITADTSANTAYMELSSLRSEDTAVYYCATSEYYSYDLFVYWGQGTLVTVSS
VL: DVQMTQSPSSLSASVGDRVTITCKSSQSLLHSNGKTYLNWLQQKPGQAPKLLLYLVSKLESGVPSRFSGSGSGTDYTLTISSLQPEDFATYYCLQTTHLYTFGQGTKLEIK
notes: also called C6 variant
B3 showed an equilibrium dissociation constant (Kd) with human DLL3-His [4] of 3.3 nM.

B4: humanized anti-DLL3 antibody h5E7-YD-F3 (antibody, V domains shown)
VH: QVQLVQSGAEVKKPGASVKVSCKASGFNIKDDYIHWVRQAPGQGLEWMGWIDSENGDTEYASKFQGRVTITADTSANTAYMELSSLRSEDTAVYYCATSSYWSYDLLVYWGQGTLVTVSS
VL: DVQMTQSPSSLSASVGDRVTITCKSSQSLLHSNGKTYLNWLQQKPGQAPKLLLYLVSKLESGVPSRFSGSGSGTDYTLTISSLQPEDFATYYCLQTTHLYTFGQGTKLEIK
notes: also called F3 variant
B4 had a Kd in the test with human DLL3-His [4] of 1.2 nM.
